Key:
[1] = target: T1, 336(P1′-P3′)562 factor VIIIa mutant
T1 chain 1: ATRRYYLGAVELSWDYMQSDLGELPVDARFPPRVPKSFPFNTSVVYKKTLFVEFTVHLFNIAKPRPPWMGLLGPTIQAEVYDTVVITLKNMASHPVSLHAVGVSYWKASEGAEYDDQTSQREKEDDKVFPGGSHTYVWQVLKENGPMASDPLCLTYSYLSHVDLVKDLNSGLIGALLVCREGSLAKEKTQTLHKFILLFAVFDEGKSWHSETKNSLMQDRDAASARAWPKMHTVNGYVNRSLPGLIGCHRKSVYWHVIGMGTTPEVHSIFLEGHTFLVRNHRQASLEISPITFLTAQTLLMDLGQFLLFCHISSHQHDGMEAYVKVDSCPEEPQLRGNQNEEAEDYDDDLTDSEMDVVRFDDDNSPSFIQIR
T1 chain 2: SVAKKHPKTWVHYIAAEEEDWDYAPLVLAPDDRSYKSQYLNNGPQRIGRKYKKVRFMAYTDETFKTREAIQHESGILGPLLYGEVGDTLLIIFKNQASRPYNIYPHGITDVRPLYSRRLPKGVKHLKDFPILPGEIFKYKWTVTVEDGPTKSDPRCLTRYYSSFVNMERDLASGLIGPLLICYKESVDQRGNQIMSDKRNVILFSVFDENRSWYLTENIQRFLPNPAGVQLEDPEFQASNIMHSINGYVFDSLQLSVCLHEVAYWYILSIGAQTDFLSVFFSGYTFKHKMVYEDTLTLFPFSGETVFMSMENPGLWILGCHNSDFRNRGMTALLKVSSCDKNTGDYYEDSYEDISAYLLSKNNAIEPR
T1 chain 3: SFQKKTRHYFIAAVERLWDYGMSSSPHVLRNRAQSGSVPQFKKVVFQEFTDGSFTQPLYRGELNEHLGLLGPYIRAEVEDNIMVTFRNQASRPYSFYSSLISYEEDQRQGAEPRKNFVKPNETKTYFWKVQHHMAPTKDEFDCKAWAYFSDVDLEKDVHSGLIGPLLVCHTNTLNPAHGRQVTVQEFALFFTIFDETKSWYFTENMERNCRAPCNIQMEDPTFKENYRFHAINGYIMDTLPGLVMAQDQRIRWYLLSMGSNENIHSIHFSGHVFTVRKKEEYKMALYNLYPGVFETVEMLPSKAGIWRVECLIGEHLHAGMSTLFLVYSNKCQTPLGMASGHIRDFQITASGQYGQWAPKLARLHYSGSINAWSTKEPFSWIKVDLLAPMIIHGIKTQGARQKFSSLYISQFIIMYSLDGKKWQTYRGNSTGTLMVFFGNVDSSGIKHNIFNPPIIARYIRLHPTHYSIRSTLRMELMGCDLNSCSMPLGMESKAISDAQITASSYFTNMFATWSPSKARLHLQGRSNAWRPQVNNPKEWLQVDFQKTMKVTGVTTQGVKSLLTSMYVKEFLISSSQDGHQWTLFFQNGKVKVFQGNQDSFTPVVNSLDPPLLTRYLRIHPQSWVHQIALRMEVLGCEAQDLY

[2] = target: T2, 336(P4-P2)562 factor VIIIa mutant
T2 chain 1: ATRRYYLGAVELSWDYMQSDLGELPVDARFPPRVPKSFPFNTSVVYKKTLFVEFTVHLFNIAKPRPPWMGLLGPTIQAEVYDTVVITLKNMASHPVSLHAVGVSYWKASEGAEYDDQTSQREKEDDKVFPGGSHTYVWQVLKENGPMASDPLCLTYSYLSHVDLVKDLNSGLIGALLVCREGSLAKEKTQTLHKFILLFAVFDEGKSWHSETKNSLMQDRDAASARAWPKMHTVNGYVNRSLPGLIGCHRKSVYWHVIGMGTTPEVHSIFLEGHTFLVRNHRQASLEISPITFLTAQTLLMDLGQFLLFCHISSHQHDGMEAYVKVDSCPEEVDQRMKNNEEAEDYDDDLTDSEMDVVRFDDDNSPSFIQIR
T2 chain 2: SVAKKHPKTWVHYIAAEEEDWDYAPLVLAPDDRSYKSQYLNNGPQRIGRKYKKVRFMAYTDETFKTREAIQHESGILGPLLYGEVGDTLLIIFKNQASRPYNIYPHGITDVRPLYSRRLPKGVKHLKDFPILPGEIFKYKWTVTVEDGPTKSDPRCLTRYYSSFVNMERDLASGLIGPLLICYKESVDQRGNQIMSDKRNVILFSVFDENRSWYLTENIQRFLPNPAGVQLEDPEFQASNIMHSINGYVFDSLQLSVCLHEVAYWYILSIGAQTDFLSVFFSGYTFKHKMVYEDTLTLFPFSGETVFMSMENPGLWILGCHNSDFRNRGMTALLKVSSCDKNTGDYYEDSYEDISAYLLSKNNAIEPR
T2 chain 3: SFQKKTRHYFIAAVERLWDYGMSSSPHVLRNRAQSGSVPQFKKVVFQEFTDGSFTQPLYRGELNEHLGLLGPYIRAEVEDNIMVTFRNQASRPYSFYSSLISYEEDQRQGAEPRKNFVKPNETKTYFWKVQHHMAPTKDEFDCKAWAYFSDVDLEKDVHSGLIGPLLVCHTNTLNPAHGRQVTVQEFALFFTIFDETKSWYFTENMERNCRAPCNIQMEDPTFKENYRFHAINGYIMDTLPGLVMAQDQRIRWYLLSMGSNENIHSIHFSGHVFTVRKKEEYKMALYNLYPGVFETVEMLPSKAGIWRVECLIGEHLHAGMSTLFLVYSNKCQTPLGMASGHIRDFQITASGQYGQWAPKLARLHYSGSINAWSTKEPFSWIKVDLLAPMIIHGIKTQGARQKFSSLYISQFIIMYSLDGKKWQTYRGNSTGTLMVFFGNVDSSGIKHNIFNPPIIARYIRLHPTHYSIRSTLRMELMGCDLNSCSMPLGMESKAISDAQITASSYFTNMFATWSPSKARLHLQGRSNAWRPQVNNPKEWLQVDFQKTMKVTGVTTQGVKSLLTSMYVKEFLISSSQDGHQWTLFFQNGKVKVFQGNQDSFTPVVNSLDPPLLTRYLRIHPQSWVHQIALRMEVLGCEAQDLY

[3] = target: T3, 562(P4-P2)336 factor VIIIa mutant
T3 chain 1: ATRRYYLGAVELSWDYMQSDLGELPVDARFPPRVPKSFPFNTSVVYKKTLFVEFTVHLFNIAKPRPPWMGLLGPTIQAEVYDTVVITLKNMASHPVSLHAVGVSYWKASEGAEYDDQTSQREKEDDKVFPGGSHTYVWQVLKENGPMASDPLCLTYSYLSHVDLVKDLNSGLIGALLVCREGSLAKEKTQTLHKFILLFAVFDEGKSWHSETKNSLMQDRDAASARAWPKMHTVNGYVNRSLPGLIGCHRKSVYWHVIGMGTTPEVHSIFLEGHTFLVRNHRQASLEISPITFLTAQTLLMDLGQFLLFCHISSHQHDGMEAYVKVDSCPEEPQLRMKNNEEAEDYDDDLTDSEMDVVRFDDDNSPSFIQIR
T3 chain 2: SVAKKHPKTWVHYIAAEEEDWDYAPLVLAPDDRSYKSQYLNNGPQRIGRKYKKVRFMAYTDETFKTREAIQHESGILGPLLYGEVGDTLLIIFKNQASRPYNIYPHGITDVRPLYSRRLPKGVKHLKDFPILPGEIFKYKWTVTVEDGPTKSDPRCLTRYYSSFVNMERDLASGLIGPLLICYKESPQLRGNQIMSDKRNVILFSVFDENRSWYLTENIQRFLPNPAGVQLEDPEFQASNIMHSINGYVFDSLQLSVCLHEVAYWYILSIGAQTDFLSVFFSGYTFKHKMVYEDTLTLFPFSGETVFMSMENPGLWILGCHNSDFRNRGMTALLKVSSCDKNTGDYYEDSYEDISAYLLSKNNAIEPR
T3 chain 3: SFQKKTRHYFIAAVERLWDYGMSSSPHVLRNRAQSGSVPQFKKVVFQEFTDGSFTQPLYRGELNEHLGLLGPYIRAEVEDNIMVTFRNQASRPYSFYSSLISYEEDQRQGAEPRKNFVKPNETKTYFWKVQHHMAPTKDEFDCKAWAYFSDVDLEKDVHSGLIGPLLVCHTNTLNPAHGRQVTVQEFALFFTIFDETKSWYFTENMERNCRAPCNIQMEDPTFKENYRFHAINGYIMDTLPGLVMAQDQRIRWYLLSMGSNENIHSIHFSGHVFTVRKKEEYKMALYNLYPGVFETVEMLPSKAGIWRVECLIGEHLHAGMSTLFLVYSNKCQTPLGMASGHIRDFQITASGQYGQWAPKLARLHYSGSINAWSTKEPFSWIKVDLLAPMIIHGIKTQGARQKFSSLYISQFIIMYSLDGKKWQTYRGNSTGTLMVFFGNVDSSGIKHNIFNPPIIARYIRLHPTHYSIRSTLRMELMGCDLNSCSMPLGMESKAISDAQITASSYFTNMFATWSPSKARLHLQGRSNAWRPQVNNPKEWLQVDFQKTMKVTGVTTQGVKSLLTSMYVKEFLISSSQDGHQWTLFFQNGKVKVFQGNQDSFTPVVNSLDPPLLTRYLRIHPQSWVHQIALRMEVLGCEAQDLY

[4] = target: T4, 562(P4-P3′)336 factor VIIIa mutant
T4 chain 1: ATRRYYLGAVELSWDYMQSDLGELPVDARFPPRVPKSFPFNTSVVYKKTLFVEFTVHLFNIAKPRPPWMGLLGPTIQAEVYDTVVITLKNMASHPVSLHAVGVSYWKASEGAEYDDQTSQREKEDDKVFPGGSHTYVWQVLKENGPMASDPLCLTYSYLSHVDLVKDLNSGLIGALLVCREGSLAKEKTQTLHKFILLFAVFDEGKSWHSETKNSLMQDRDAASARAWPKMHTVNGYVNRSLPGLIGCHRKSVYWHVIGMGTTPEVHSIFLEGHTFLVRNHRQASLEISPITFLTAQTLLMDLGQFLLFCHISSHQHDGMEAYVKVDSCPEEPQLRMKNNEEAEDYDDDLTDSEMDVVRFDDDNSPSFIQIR
T4 chain 2: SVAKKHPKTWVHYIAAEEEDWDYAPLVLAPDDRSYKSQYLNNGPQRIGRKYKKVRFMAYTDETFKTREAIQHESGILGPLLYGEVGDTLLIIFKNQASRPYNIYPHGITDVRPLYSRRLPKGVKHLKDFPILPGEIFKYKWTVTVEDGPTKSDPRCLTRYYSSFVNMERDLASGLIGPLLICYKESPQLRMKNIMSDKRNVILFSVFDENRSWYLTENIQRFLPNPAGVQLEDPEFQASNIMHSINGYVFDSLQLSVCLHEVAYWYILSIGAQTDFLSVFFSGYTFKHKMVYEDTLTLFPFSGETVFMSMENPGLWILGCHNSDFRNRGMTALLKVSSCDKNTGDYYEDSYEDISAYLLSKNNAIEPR
T4 chain 3: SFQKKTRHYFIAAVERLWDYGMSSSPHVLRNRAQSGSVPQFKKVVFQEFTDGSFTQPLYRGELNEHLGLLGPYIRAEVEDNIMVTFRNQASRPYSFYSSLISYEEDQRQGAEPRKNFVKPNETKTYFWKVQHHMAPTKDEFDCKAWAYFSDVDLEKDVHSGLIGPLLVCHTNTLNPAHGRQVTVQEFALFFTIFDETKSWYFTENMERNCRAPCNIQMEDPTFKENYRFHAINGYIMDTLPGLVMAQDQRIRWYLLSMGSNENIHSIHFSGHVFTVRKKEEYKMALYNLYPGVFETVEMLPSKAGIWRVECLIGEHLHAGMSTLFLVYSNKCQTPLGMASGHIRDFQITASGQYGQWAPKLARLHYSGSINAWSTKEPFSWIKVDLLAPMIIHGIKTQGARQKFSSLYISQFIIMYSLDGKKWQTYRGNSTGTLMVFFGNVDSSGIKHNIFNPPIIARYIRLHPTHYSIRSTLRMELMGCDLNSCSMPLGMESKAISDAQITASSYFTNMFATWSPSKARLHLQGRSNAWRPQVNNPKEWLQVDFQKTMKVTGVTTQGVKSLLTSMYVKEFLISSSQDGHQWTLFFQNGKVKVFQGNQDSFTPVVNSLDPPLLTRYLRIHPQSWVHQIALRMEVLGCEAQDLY

B1: human activated protein C (protein)
chain 1: ANSFLEELRHSSLERECIEEICDFEEAKEIFQNVDDTLAFWSKHVDGDQCLVLPLEHPCASLCCGHGTCIDGIGSFSCDCRSGWEGRFCQREVSFLNCSLDNGGCTHYCLEEVGWRRCSCAPGYKLGDDLLQCHPAVKFPCGRPWKRMEKKRSHL
chain 2: LIDGKMTRRGDSPWQVVLLDSKKKLACGAVLIHPSWVLTAAHCMDESKKLLVRLGEYDLRRWEKWELDLDIKEVFVHPNYSKSTTDNDIALLHLAQPATLSQTIVPICLPDSGLAERELNQAGQETLVTGWGYHSSREKEAKRNRTFVLNFIKIPVVPHNECSEVMSNMVSENMLCAGILGDRQDACEGDSGGPMVASFHGTWFLVGLVSWGEGCGLLHNYGVYTKVSRYLDWIHGHIRDKEAPQKSWAP
A1 Cleavage (nM A1/min/nM APC) (nM A1/min/nM APC) [1]: 1.1
A2 Cleavage (nM A2/min/nM APC) (nM A2/min/nM APC) [1]: 0.3
fold reduction of cleavage rate at the A1 site compared with WT [1]: reduced ˜16 and ˜9-fold, respectively, as compared with the WT protein
A1 Cleavage (nM A1/min/nM APC) (nM A1/min/nM APC) [2]: 0.6
A2 Cleavage (nM A2/min/nM APC) (nM A2/min/nM APC) [2]: 0.2
fold reduction of cleavage rate at the A1 site compared with WT [2]: reduced ˜16 and ˜9-fold, respectively, as compared with the WT protein
A1 Cleavage (nM A1/min/nM APC) (nM A1/min/nM APC) [3]: 7.4
A2 Cleavage (nM A2/min/nM APC) (nM A2/min/nM APC) [3]: 0.7
A1 Cleavage (nM A1/min/nM APC) (nM A1/min/nM APC) [4]: 7.3
A2 Cleavage (nM A2/min/nM APC) (nM A2/min/nM APC) [4]: 1.9
fold increase of A2 subunit cleavage rate [4]: the rate of A2 subunit cleavage for 562(P4-P3′)336 mutant was increased 4 fold

From patent US20090118185A1 (UNIVERSITY OF ROCHESTER, published 2009)
